The Ki is the equilibrium dissociation constant of an inhibitor or competing ligand from its target.

Non-standard residues stand in square brackets, D forms with d. *: point of attachment. Dmt = Cc1cc(O)cc(C)c1C[C@H](N)C(=O)O; Tic = O=C(O)[C@@H]1Cc2ccccc2CN1; NHNH2 = NN*

Experiment [1] addresses µ-opioid receptor (rat brain synaptosomal preparation) (rat) (UniProt P33535). Put plainly: radioligand competition vs [^3H]DAGO, rat brain synaptosomes.
The target in experiment [2] is δ-opioid receptor (rat brain synaptosomal preparation) (rat) (UniProt P33533). Briefly: radioligand competition vs [^3H]DPDPE, rat brain synaptosomes. A general note: Loss of bound radioactivity is the signal in a displacement assay; it reports binding, not function.
Experiment [3] shares this target. Briefly: radioligand competition vs [^3H]N,N(CH3)2-Dmt-Tic-OH, rat brain synaptosomes.
In experiment [4] the target is δ-opioid receptor of the mouse vas deferens (MVD) (mouse) (UniProt P32300). Briefly: cell-based or functional assay.
Sequence of δ-opioid receptor of the mouse vas deferens (MVD) (mouse) (P32300 whole entry, stated change not applied): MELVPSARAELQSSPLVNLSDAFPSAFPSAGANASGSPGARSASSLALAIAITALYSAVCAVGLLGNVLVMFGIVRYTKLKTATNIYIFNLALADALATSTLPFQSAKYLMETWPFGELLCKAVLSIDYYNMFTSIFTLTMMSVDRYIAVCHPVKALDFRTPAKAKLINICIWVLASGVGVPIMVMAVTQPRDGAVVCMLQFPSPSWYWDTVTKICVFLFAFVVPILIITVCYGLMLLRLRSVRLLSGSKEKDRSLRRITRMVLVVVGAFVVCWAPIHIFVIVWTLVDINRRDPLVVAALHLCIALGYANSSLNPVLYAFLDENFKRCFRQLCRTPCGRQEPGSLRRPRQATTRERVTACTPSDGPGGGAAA

Sequence of δ-opioid receptor (rat brain synaptosomal preparation) (rat) (P33533 whole entry, stated change not applied): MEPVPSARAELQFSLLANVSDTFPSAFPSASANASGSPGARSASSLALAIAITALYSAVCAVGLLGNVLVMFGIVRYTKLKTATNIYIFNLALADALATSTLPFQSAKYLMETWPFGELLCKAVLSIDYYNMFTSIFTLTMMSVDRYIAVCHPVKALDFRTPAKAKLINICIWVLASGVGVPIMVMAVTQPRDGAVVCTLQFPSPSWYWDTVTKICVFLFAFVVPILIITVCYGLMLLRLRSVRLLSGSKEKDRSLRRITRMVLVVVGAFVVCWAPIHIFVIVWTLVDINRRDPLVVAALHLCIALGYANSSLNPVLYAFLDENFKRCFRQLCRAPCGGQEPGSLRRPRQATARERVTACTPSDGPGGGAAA
Sequence of µ-opioid receptor (rat brain synaptosomal preparation) (rat) (P33535 whole entry): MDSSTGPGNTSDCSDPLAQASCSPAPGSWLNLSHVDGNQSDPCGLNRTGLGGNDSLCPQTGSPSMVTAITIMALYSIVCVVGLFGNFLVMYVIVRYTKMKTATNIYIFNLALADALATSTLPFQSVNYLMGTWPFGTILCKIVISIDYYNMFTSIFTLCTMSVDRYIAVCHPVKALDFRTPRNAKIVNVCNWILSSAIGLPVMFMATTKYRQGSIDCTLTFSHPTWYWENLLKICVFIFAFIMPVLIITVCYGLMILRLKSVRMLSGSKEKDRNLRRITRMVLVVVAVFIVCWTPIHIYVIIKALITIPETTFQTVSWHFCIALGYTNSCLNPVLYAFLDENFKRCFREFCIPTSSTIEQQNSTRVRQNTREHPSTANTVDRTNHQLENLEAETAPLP

As to H-Dmt-Tic-Ala-OH (peptide), the Ki in experiment [1] came out at 813 nM; in experiment [2] it was 0.29 nM; in experiment [3], 0.29 nM.

Regarding “[des-NH2-α-pyrrole-1-yl]-Dmt-Tic-OH (peptide)”, the inhibition constant Ki in experiment [1] is 5590 nM; in experiment [2], 16.6 nM; in experiment [3], 9.94 nM.

H-[Dmt]-[Tic]-NH2: the values for the inhibition constant Ki in experiment [2] and in experiment [3] were 1.22 nM and 2.13 nM, respectively.

Consider “N,N(Me)2-Dmt-Tic-NH-1-adamantane (peptide)”, for which the Ki amounted to 1.12 nM in experiment [1], 0.16 nM in experiment [2] and 0.12 nM in experiment [3]. This substance also yielded a fold rise of µ affinity relative to N,N(Me)2-Dmt-Tic-OH in experiment [1] of 2200 fold.

For H-Dmt-D-Tic-NH-1-adamantane (peptide), the Ki in experiment [1] stood at 0.26 nM; in experiment [2] it was 24.5 nM; in experiment [3], 70.3 nM.

“[des-NH2-α-piperidine-1-yl]-Dmt-Tic-OH (peptide)”: the Ki in experiment [1] turned out to be 2040 nM; in experiment [2] it was 1.18 nM; in experiment [3], 0.74 nM.

Substance cyclo (DMT-Tic) (peptide) displayed an MVD pA2 in experiment [4] of 5.43. The same substance showed a Ki in experiment [2] of 9.58 nM.

In the case of H-Dmt-βTic-OH (peptide), the Ki was 418 nM in experiment [1], 0.85 nM in experiment [2] and 0.71 nM in experiment [3].

As to H-Dmt-Tic-NH-1-adamantane (peptide), the Ki in experiment [1] amounted to 0.76 nM; in experiment [2], 0.26 nM; in experiment [3], 1.01 nM.

Take H-[Dmt]-[Tic]-OMe: the Ki in experiment [1] is 423 nM; in experiment [2] it was 9.64 nM; in experiment [3], 500 nM.

As to N,N(Me)2-Dmt-Tic-NH-tBu (peptide), the Ki was 226 nM in experiment [1], 0.61 nM in experiment [2] and 0.11 nM in experiment [3].

With H-[Dmt]-[Tic]-NHNH2, the Ki in experiment [1] was 85.1 nM; in experiment [2], 0.99 nM; in experiment [3], 42 nM.

As for H-Dmt-Tic-Ala-NH-tBu (peptide), the Ki in experiment [1] turned out to be 4.03 nM; in experiment [2] it was 0.066 nM; in experiment [3], 0.08 nM.

Regarding H-Dmt-Tic-Ala-OMe (peptide), the values for the Ki in experiment [1], in experiment [2] and in experiment [3] were 11.3 nM, 0.23 nM and 0.14 nM, respectively.

In experiment [1], H-[Dmt]-[Tic]-OH displayed a Ki of 3320 nM.

Turning to “N,N(Me)2-Dmt-D-Tic-NH-1-adamantane (peptide)”, the inhibition constant (Ki) in experiment [1] was 50.5 nM; in experiment [2] it was 140 nM; in experiment [3] it was 120 nM.

For H-Dmt-Tic-Ala-NH2 (peptide), the Ki was 47 nM in experiment [1], 0.24 nM in experiment [2] and 0.69 nM in experiment [3].

For N,N(Me)2-Dmt-Tic-NHMe (peptide), the Ki turned out to be 359 nM in experiment [1], 0.54 nM in experiment [2] and 0.28 nM in experiment [3].

With H-Dmt-Tic-Ala-NH-1-adamantane (peptide), the Ki in experiment [1] was 2.52 nM; in experiment [2], 0.073 nM; in experiment [3] it was 0.04 nM.

As for N,N(Me)2-Dmt-Tic-OH (peptide), the Ki in experiment [1] came out at 2440 nM; in experiment [2], 0.12 nM; in experiment [3], 0.07 nM.

In the case of H-[Dmt]-[Tic]-NHMe, the results for the Ki in experiment [1], in experiment [2] and in experiment [3] were 85.5 nM, 0.47 nM and 1.24 nM, respectively.

For the substance H-Dmt-Tic-NH-tetrazole-5-yl (peptide), the values for the Ki in experiment [1], in experiment [2] and in experiment [3] were 37 nM, 0.7 nM and 9.75 nM, respectively.

For “[des-NH2-α-pyrrolidine-1-yl]-Dmt-Tic-OH (peptide)”, the Ki in experiment [1] amounted to 814 nM; in experiment [2], 1.62 nM; in experiment [3], 1.42 nM.

With H-Dmt-Tic-Ala-NHMe (peptide), the Ki came out at 5.75 nM in experiment [1], 0.058 nM in experiment [2] and 0.12 nM in experiment [3].

In the case of N,N(Et)2-DMT-Tic-OH (peptide), in experiment [2], the Ki is 0.92 nM.

Take H-(R,S)Dmt-Tic-OH (peptide): the Ki worked out at 1160 nM in experiment [1], 0.46 nM in experiment [2] and 0.8 nM in experiment [3].

On to H-αDmt-Tic-OH (peptide), for which the Ki came out at 1740 nM in experiment [1], 11.2 nM in experiment [2] and 475 nM in experiment [3].

Regarding H-Dmt-Tic-NH-tBu (peptide), the results for the Ki in experiment [1], in experiment [2] and in experiment [3] were 5.96 nM, 0.43 nM and 0.93 nM, respectively.
